The target of experiment [1] is T1, human PD-1 fusion protein (human, UniProt Q15116 25-170).
T1 construct: also called Soluble PD-1 fusion protein; human PD-1/IgG chimera; not shown: fusion partner (IgG part of the chimera)
The experiment in a line: IgG titrated; inhibition of biotinylated human PD-L1 fusion binding to plate-bound human PD-1 fusion.

The target in experiment [2] is T1, human PD-1 fusion protein. The experiment in a line: purified scFv titrated; inhibition of biotinylated human PD-L1 fusion binding to plate-bound human PD-1 fusion. Here is the method: ScFv production was induced by addition of 1 mM IPTG to exponentially growing cultures and incubation overnight at 30° C. Crude scFv-containing periplasmic extracts were obtained by subjecting the bacterial pellets from the overnight induction to osmotic shock. Pellets were resuspended in 20% (w/v) sucrose, 50 mM Tris-HCl, pH 7.5, 1 mM EDTA and cooled on ice for 30 minutes. Cellular debris was removed by centrifugation, and the scFv was purified by chromatography and buffer-exchanged into PBS. Purified scFv's (PD1-17, PD1-28, PD1-33, and PD1-35) were tested for the ability to inhibit the binding of biotinylated human PD-L1 fusion protein to human PD-1 fusion protein immobilized on plastic in a 96 well microtiter plate assay. Binding of biotinylated PD-L1 fusion protein was detected with AMDEX-alkaline phosphatase, and the signal generated was measured by reading the absorbance at 405 nm using a microtiter plate reader. Data was expressed as a percentage of the total binding and a titration of scFv concentrations was tested to establish clone potency as calculated IC₅₀ values.

T1 sequence (Q15116 other isoform, or with tags, fused parts or gaps): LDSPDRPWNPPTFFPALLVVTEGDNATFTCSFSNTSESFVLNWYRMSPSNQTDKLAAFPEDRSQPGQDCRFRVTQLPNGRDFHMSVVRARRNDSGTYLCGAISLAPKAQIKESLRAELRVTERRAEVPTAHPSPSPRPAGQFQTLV

B1: PD1-35 IgG (antibody, V domains shown)
VH: QVQLQESGPGLVKPSQTLSLTCTVSGGSISSGAYYWSWIRQHPGKGLEWIGYIYYNGNTYYNPSLRSLVTISVDASKNQFSLKLSSVTAADTAVYYCARASDYVWGGYRYMDAFDIWGRGTLITVSS
VL: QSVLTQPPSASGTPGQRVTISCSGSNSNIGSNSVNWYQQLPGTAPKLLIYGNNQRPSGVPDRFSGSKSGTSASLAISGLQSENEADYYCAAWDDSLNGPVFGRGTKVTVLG
notes: also called PD-35
With B1, the IC50 in experiment [1] was 2.3 nM.

B2: PD1-17 scFv (scFv, V domains shown)
VH: QVQLQESGPGVVKPSGTLSLTCAISGGSIGSGGSIRSTRWWSWVRQSPGKGLEWIGEIYHSGSTNYNPSLKSRVTISLDKSRNHFSLRLNSVTAADTAVYYCARQDYGDSGDWYFDLWGKGTMVTVSS
VL: NFMLTQPHSVSESPGKTVTISCTRSSGSIASNSVQWYQQRPGSSPTTVIYEDNQRPSGVPDRFSGSIDSSSNSASLTVSGLKTEDEADYYCQSSDSSAVVFGSGTKLTVL
notes: not shown: scFv linker and domain order
In experiment [2], B2 registered an IC50 of 726 nM.

B3: PD1-17 IgG (antibody, V domains shown)
VH: QVQLQESGPGVVKPSGTLSLTCAISGGSIGSGGSIRSTRWWSWVRQSPGKGLEWIGEIYHSGSTNYNPSLKSRVTISLDKSRNHFSLRLNSVTAADTAVYYCARQDYGDSGDWYFDLWGKGTMVTVSS
VL: NFMLTQPHSVSESPGKTVTISCTRSSGSIASNSVQWYQQRPGSSPTTVIYEDNQRPSGVPDRFSGSIDSSSNSASLTVSGLKTEDEADYYCQSSDSSAVVFGSGTKLTVL
notes: also called anti-PD-1 antibody PD1-17
The molecule B3 came in with an IC50 in experiment [1] of 2.5 nM.

B4: PD1-28 scFv (scFv, V domains shown)
VH: EVQLVQSGAEVKKPGASVKVSCKASGYRFTSYGISWVRQAPGQGLEWMGWISAYNGNTNYAQKLQGRVTMTTDTSTNTAYMELRSLRSDDTAVYYCARDADYSSGSGYWGQGTLVTVSS
VL: SYELTQPPSVSVSPGQTARITCSGDALPKQYAYWYQQKPGQAPVMVIYKDTERPSGIPERFSGSSSGTKVTLTISGVQAEDEADYYCQSADNSITYRVFGGGTKVTVL
notes: as for B2
Regarding B4, the IC50 in experiment [2] worked out at 560 nM.

B5: PD1-28 IgG (antibody, V domains shown)
VH: EVQLVQSGAEVKKPGASVKVSCKASGYRFTSYGISWVRQAPGQGLEWMGWISAYNGNTNYAQKLQGRVTMTTDTSTNTAYMELRSLRSDDTAVYYCARDADYSSGSGYWGQGTLVTVSS
VL: SYELTQPPSVSVSPGQTARITCSGDALPKQYAYWYQQKPGQAPVMVIYKDTERPSGIPERFSGSSSGTKVTLTISGVQAEDEADYYCQSADNSITYRVFGGGTKVTVL
Turning to B5, the IC50 in experiment [1] turned out to be 1.4 nM.

B6: PD1-33 IgG (antibody, V domains shown)
VH: QVQLVQSGAEVKKPGASVRVSCKASGYTLTSYYIHWVRQAPGQGLEWMGIINPRGATISYAQKFQGRVTMTRDTSTSTVYMELRNLKSEDTALYYCATAGIYGFDFDYWGRGTLVTVSS
VL: QSALTQPASVSGSPGQSITISCTGTSNDVGGYNYVSWYQHHPGKAPKLIIYDVTNRPSGVSDRFSGSKSGNTASLTISGLLAEDEGDYYCSSYTIVTNFEVLFGGGTKLTV
Take B6: the IC50 in experiment [1] amounted to 1.8 nM.

The values are drawn from patent US20060210567A1 (AstraZeneca / MedImmune, published 2006).
